According to publication doi:10.1101/2021.02.18.431817 (bioRxiv, 2021):

How the values were obtained:
[1] = biological target: T1, SAP2:CFP (A. thaliana, UniProt Q8H0X0 1-173); experiment: FRET or BRET
T1 sequence (looked up): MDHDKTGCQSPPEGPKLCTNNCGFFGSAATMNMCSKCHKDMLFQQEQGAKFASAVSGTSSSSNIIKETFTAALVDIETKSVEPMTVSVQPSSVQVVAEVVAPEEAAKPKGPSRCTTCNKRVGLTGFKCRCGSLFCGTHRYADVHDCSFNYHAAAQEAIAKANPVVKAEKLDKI

[2] = biological target: T2, SAP3:CFP (A. thaliana, UniProt Q9ZNU9 1-163); experiment: FRET or BRET
T2 sequence (looked up): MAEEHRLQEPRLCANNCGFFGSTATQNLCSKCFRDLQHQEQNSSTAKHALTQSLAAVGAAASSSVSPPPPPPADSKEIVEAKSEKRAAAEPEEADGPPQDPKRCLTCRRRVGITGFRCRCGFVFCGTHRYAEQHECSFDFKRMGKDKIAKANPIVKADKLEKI

B1: CML49:YFP (natural protein, A. thaliana, UniProt Q8W4L0 1-335, looked up)
chain: MSGYPPSSQGYGYGGNPPPPQPPYGSTGNNPPPYGSSGSNPPPPYGSSASSPYAVPYGAQPAPYGAPPSAPYASLPGDHNKPHKEKPHGASYGSPSPGGYGAHPSSGPSDYGGYGGAPQQSGHGGGYGGAPQQSGHGGGYGAPPPQASYGSPFASLVPSAFPPGTDPNIVACFQAADRDNSGFIDDKELQGALSSYNQSFSIRTVHLLMYLFTNSNVRKIGPKEFTSLFFSLQNWRSIFERFDKDRSGRIDTNELRDALMSLGFSVSPVILDLLVSKFDKSGGRNRAIEYDNFIECCLTVKGLTEKFKEKDTALSGSAIFNYENFMLTVLPFLVA
- FRET efficiency, fold of negative control [1]: > 5 fold of negative control
- FRET efficiency, fold of negative control [2]: > 5 fold of negative control
